Assay results from patent US20030224997A1.
Positions of bridges follow the written chain, without caps; N, C: chain ends. No end group written: not given here. *: point of attachment. Biotin = O=C1N[C@H]2[C@H](CS[C@H]2CCCCC(=O)*)N1

B1: biotinylated L1AD3 (btn-…), cyclized (peptide)
peptide: Biotin-LKCNKLVPLFYKTC
modifications: disulfide 3-14
B2: L1AD3 peptide (…), cyclized (peptide)
peptide: LKCNKLVPLFYKTC
modifications: disulfide 3-14

Key:
[1] = biological target: protein on the CEM cell surface that binds L1AD3 (L1AD3 protein receptor, 27-35 kDa) (human)
[2] = biological target: protein on the CEM cell surface that binds L1AD3 (L1AD3 protein receptor, 27-35 kDa) (human); experiment: fluorescence spectroscopy, CEM cells in suspension, avidin-FITC
[3] = biological target: protein on the CEM cell surface that binds L1AD3 (L1AD3 protein receptor, 27-35 kDa) (human); remark: listed apart in the source

Row | Binder | Kd [1] [µM] | fluorescence increase over cells not incubated with biotinylated peptide [2] [%] | percent inhibition of binding of biotinylated L1AD3 [3] [%] | percent reduction of binding of biotinylated peptide [1] [%]
1 | B1 | 6 | 48 |  | 
2 | B2 |  |  | 50 | 47
